According to patent publication US20050250692A1:

What was measured:
[1] = target: acidic pH binding sites of MEF cells; experiment: competition with 125I-α2M* binding to MEF cells at pH 5.5
[2] = target: acidic pH binding sites of PEA-13 cells; experiment: competition with 125I-α2M* binding to PEA-13 cells at acidic pH
[3] = target: acidic pH binding sites of Mv1Lu cells; experiment: Scatchard plot analysis of 125I-α2M* binding to Mv1Lu cells at pH 5
[4] = target: acidic pH binding sites of Mv1Lu cells; experiment: concentration dependence of 125I-α2M* binding to Mv1Lu cells at pH 5

B1: α2M activated by methylamine (α2M*) (ligand, human, UniProt P01023 24-1474, looked up)
chain: SVSGKPQYMVLVPSLLHTETTEKGCVLLSYLNETVTVSASLESVRGNRSLFTDLEAENDVLHCVAFAVPKSSSNEEVMFLTVQVKGPTQEFKKRTTVMVKNEDSLVFVQTDKSIYKPGQTVKFRVVSMDENFHPLNELIPLVYIQDPKGNRIAQWQSFQLEGGLKQFSFPLSSEPFQGSYKVVVQKKSGGRTEHPFTVEEFVLPKFEVQVTVPKIITILEEEMNVSVCGLYTYGKPVPGHVTVSICRKYSDASDCHGEDSQAFCEKFSGQLNSHGCFYQQVKTKVFQLKRKEYEMKLHTEAQIQEEGTVVELTGRQSSEITRTITKLSFVKVDSHFRQGIPFFGQVRLVDGKGVPIPNKVIFIRGNEANYYSNATTDEHGLVQFSINTTNVMGTSLTVRVNYKDRSPCYGYQWVSEEHEEAHHTAYLVFSPSKSFVHLEPMSHELPCGHTQTVQAHYILNGGTLLGLKKLSFYYLIMAKGGIVRTGTHGLLVKQEDMKGHFSISIPVKSDIAPVARLLIYAVLPTGDVIGDSAKYDVENCLANKVDLSFSPSQSLPASHAHLRVTAAPQSVCALRAVDQSVLLMKPDAELSASSVYNLLPEKDLTGFPGPLNDQDNEDCINRHNVYINGITYTPVSSTNEKDMYSFLEDMGLKAFTNSKIRKPKMCPQLQQYEMHGPEGLRVGFYESDVMGRGHARLVHVEEPHTETVRKYFPETWIWDLVVVNSAGVAEVGVTVPDTITEWKAGAFCLSEDAGLGISSTASLRAFQPFFVELTMPYSVIRGEAFTLKATVLNYLPKCIRVSVQLEASPAFLAVPVEKEQAPHCICANGRQTVSWAVTPKSLGNVNFTVSAEALESQELCGTEVPSVPEHGRKDTVIKPLLVEPEGLEKETTFNSLLCPSGGEVSEELSLKLPPNVVEESARASVSVLGDILGSAMQNTQNLLQMPYGCGEQNMVLFAPNIYVLDYLNETQQLTPEIKSKAIGYLNTGYQRQLNYKHYDGSYSTFGERYGRNQGNTWLTAFVLKTFAQARAYIFIDEAHITQALIWLSQRQKDNGCFRSSGSLLNNAIKGGVEDEVTLSAYITIALLEIPLTVTHPVVRNALFCLESAWKTAQEGDHGSHVYTKALLAYAFALAGNQDKRKEVLKSLNEEAVKKDNSVHWERPQKPKAPVGHFYEPQAPSAEVEMTSYVLLAYLTAQPAPTSEDLTSATNIVKWITKQQNAQGGFSSTQDTVVALHALSKYGAATFTRTGKAAQVTIQSSGTFSSKFQVDNNNRLLLQQVSLPELPGEYSMKVTGEGCVYLQTSLKYNILPEKEEFPFALGVQTLPQTCDEPKAHTSFQISLSVSYTGSRSASNMAIVDVKMVSGFIPLKPTVKMLERSNHVSRTEVSSNHVLIYLDKVSNQTLSLFFTVLQDVPVRDLKPAIVKVYDYYETDEFAIAEYNAPCSKDLGNA
modifications: activated by methylamine; 125I-labelled where used as tracer
IC50 [1]: 50 nM
IC50 [2]: 120 nM
Kd [3]: 51 nM
sites/cell [3]: 1e+06 sites/cell
saturating concentration [4]: 120 nM
